Reference: US8835136B2, “Engineered amine dehydrogenases and methods of use thereof” (Georgia Tech Research Corporation, priority 2012, dated 2014)
Several values for one entry are separate records, joined by “and”; a condition that tells them apart may be missing. Equal entries are not always repeated.

Assays:
Type in all cases: biochemical
[1] = Oxidative deamination, spectrophotometric assay at 340 nm; conditions: deamination, 0.1M glycine pH 10.0, 1 mM NAD+, 20 mM, 25° C.
Protocol: Activity of purified proteins was measured using a spectrophotometric assay at 340 nm, corresponding to the cofactor nicotinamide adenine dinucleotide (NADH, ε340=6220 M^−1 cm^−1) (Dawson, et al., Clarendon Press, (1989). For reductive amination, reactions took place in 500 mM NH4Cl/NH4OH at pH 9.6, with 200 μM NADH and 20 mM of the ketone substrate, unless otherwise specified. […] All reactions were performed at 25° C. unless otherwise specified. Enzyme was added in 10 μL aliquots in dilute concentrations. Enzyme concentrations varied upon activity levels with the substrate present, but were dilute enough to ensure linear conversion kinetics over the analytical time period (10 min to 30 min). Specific activities were then calculated from the stoichiometric conversion of cofactor as determine by the change in absorbance at 340 nm over time.
The enantioselectivity was initially estimated by measuring the deamination activity toward individual enantiomers of methylbenzylamine (MBA). […] A preference towards (R)-MBA over the corresponding (S)-enantiomer was evident in the discrepancies between the deamination activities of 0.586 U mg^−1 and 0.002 U mg^−1, respectively. These preliminary results were corroborated through direct measurement of the enantioselectivity of the MIBK amination in producing chiral 1,3-DMBA.

[2] = Temperature versus activity profile (PheDH-AmDH)
Protocol: The thermostability of the double variant K77S N276L was additionally determined by a temperature versus activity plot, showing the results of amination activity measured in 5 M NH4Cl/NH4OH buffer pH 9.6, 200 μM NADH, 20 mM PFPA for 2 minutes (FIG. 17). […] The near linear increase corresponds to a low activation energy of 241 J mol^−1. The maximum specific activity was 11.6 U mg^−1 at a temperature of 50° C. Above 50° C., the enzyme began to rapidly lose activity as a result of denaturation. This deactivation correlated well with the circular dichroism data, where a dramatic loss of secondary structure was observed from 50° C. to 70° C.

[3] = Oxidative deamination, spectrophotometric assay at 340 nm; conditions: deamination
[4] = Reductive amination activity
[5] = Reductive amination, spectrophotometric assay at 340 nm; conditions: 500 mM NH4Cl/NH4OH pH 9.6, 200 μM NADH, 20 mM, 25° C.
Protocol: (§1) Activity of purified proteins was measured using a spectrophotometric assay at 340 nm, corresponding to the cofactor nicotinamide adenine dinucleotide (NADH, ε340=6220 M^−1 cm^−1) (Dawson, et al., Clarendon Press, (1989). For reductive amination, reactions took place in 500 mM NH4Cl/NH4OH at pH 9.6, with 200 μM NADH and 20 mM of the ketone substrate, unless otherwise specified. For oxidative deamination, reactions took place in 0.1 M NaHCO3/Na2CO3 buffer at pH 10.0, with 1 mM NAD+ with 10 mM of the amine substrate of interest. All reactions were performed at 25° C. unless otherwise specified. Enzyme was added in 10 μL aliquots in dilute concentrations. Enzyme concentrations varied upon activity levels with the substrate present, but were dilute enough to ensure linear conversion kinetics over the analytical time period (10 min to 30 min). Specific activities were then calculated from the stoichiometric conversion of cofactor as determine by the change in absorbance at 340 nm over time.
(§2) The activity of the purified protein was evaluated using a spectrophotometric assay at 340 nm as described in Section 3.2.3 at 25° C. in various concentrations of NH4Cl/NH4OH buffer pH 9.6.

[6] = as above; conditions: 500 mM NH4Cl/NH4OH pH 9.6, 200 μM NADH, 20 mM, 25° C.; remark: listed apart in the source
[7] = Conversion with GDH cofactor recycle system (PheDH-AmDH); conditions: 100 mL, 20 mM PFPA, 48 hours
Protocol: The GDH consumes glucose present in solution to cheaply and efficiently regenerate the NADH cofactor, allowing conversion to continue beyond stoichiometric depletion of NADH. In a 100 mL reaction volume containing 20 mM PFPA, conversion was allowed to continue for 48 hours followed by extraction and ^1H-NMR to confirm the product formation and conversion levels. […] Under the same reaction conditions, 17.46 mg of the AmDH enhanced the overall conversion to 93.8% and 73.9% yield. Evidence of chirality was indicated by different NMR signals of the C3 hydrogens (δ 2.67, 2.49) which are adjacent to the C2 stereocenter (FIG. 18).

[8] = Kinetic parameter for NADH (PheDH-AmDH)
Protocol: Kinetic parameters, kcat and KM, were determined for the enzyme and each of the reductive amination substrates; respectively. […] The kcat value for this AmDH enzyme with all three substrates saturated in aqueous NH4Cl/NH4OH buffer at pH 9.6 was 6.85 s^−1 at 25° C. This represents a near 15-fold enhancement above the maximum observed kcat of 0.46 s^−1 of the previously developed LeuDH-AmDH.

[9] = Reductive amination of PFPA, spectrophotometric assay at 340 nm
Protocol: as §1, §2
Active variants were identified by the rate of change in absorbance at 340 nm, corresponding to the fastest activity. […] Some variants consumed the cofactor too quickly (<5 min) to be observed over multiple time points, and gave low absorbance in the initial time point. These variants were included for further characterization. The successful variants were sequenced (MWG Operon), and each unique sequence was expressed in pET28a/BL21 for histag purification and determination of kcat and KM values with PFPA.

B1: K77S N276L: PheDH-AmDH double variant, SEQ ID NO:2; PheDH library 1 hit 1H4 (protein)
chain: SLVEKTSIIKDFTLFEKMSEHEQVVFCNDPATGLRAIIAIHDTTLGPALGGCRMQPYNSVEEALEDALRLSKGMTYSCAASDVDFGGGKAVIIGDPQKDKSPELFRAFGQFVDSLGGRFYTGTDMGTNMEDFIHAMKETNCIVGVPEAYGGGGDSSIPTAMGVLYGIKATNKMLFGKDDLGGVTYAIQGLGKVGYKVAEGLLEEGAHLFVTDINEQTLEAIQEKAKTTSGSVTVVASDEIYSQEADVFVPCAFGGVVNDETMKQFKVKAIAGSANLQLLTEDHGRHLADKGILYAPDYIVNSGGLIQVADELYEVNKERVLAKTKHIYDAILEVYQQAELDQITTMEAANRMCEQRMAARGRRNSFFTSSVKPKWDIRN
[1]
  Activity, R-MBA: 1.9 ± 1.8 mU/mg
  Activity, S-MBA: <1.0 mU/mg
[2]; 10-45° C.
  activation energy: 0.0576 kcal/mol
[2]; at 50° C., 5 M NH4Cl/NH4OH pH 9.6, 200 μM NADH, 20 mM PFPA
  maximum specific activity: 11.6 U mg^−1
[3]; 40 mM, 20 mM of each enantiomer
  Activity, R/S-MBA: 0.5 ± 0.2 mU/mg
[3]; 0.1M glycine pH 10.0, 1 mM NAD+, 20 mM, 25° C.
  Activity, 1,3-DMBA: 166.3 ± 0.0 mU/mg
[4]
  activity level, 1,3 Phenylbutanedione: 30 mU/mg
[5]
  Activity, 1-Boc-piperidone: 7.8 ± 1.1 mU/mg
  Activity, 2-hexanone: 155.7 mU/mg and 155.7 ± 1.4 mU/mg
  Activity, 2-methylcyclohexanone: 19.3 ± 1.1 mU/mg
  Activity, 3-hexanone: 1.6 mU/mg and 1.6 ± 0.5 mU/mg
  Activity, 3-methyl-2-butanone: 72.7 ± 1.4 mU/mg
  Activity, 3-methylcyclohexanone: 41.1 ± 2.1 mU/mg
  Activity, 3-pentanone: 1.3 ± 0.0 mU/mg
  Activity, Benzyloxyacetic acid: 22.6 ± 0.7 mU/mg
  Activity, benzaldehyde: 31.4 ± 8.7 mU/mg
  Activity, cyclopentanone: 0.9 ± 0.5 mU/mg
  Activity, phenoxy-2-propanone: 540.8 ± 6.9 mU/mg
[5]; listed as K77S/N276L
  Activity, 2-hexanone: 155.7 mU/mg
  Activity, 3-hexanone: 1.6 mU/mg
[6]
  Activity, MIBK: 77.0 ± 1.3 mU/mg
  Activity, cyclohexanone: 27.5 ± 1.4 mU/mg
  Activity, ethylpyruvate: 18.4 ± 5.9 mU/mg
[7]; 7.48 mg AmDH
  conversion of 4-fluorophenyl acetone: 89.4%
[7]; 17.46 mg AmDH
  overall conversion: 93.8%
[8]
  Km: 0.0239 mM
[9]
  enhancement above maximum kcat of LeuDH-AmDH: ~15 fold
[9]; 500 mM NH4Cl/NH4OH pH 9.6, 200 μM NADH, apparent
  kcat, amination of PFPA: 2.8 s⁻¹
[9]; 500 mM NH4Cl/NH4OH pH 9.6, 200 μM NADH, read-out: KM, amination of PFPA
  Km: 4.37 mM
[9]; 5 M NH4Cl/NH4OH pH 9.6, 200 μM NADH, read-out: KM value of PFPA
  Km: 7.75 mM
[9]; aqueous NH4Cl/NH4OH buffer pH 9.6, 25° C.
  kcat with all three substrates saturated: 6.85 s⁻¹
